From patent JP2020103280A come the findings set out here.

For experiment [1], the target named is ヒトFcγRIIIaを固定化した担体(分離剤)を詰めたカラム(FcR9_Fカラム、WO2018/150973号の実施例5に記載) (human). Kind of experiment: FcγRIIIa affinity chromatography (FcR9_F column), area share of the strongly binding peak 3; antibody from bioreactor batch culture in BalanCD CHO Growth A with 5 µM Mn, day 10.
Experiment [2] has the same target. Put plainly: FcγRIIIa affinity chromatography (FcR9_F column), area share of the strongly binding peak 3; antibody from bioreactor batch culture in EX-CELL Advanced CHO Fed-batch Medium without Mn, day 10.
The target is the same in experiment [3]. Put plainly: FcγRIIIa affinity chromatography (FcR9_F column), area share of the strongly binding peak 3; antibody from bioreactor batch culture in EX-CELL Advanced CHO Fed-batch Medium with 5 µM Mn, day 10.
Experiment [4] shares this target. Kind of experiment: FcγRIIIa affinity chromatography (FcR9_F column), area share of the strongly binding peak 3; antibody from bioreactor batch culture in BalanCD CHO Growth A without Mn, day 9.
For experiment [5] the target is unchanged. Put plainly: FcγRIIIa affinity chromatography (FcR9_F column), area share of the strongly binding peak 3; antibody from bioreactor batch culture in EX-CELL Advanced CHO Fed-batch Medium with 10 µM Mn, day 10.
Experiment [6] shares this target. Put plainly: FcγRIIIa affinity chromatography (FcR9_F column), area share of the strongly binding peak 3; antibody from bioreactor batch culture in EX-CELL Advanced CHO Fed-batch Medium with 1 µM Mn, day 10.

B1: 抗インターロイキン6レセプター(IL−6R)抗体 (antibody, V domains shown)
VH: QVQLQESGPGLVRPSQTLSLTCTVSGYSITSDHAWSWVRQPPGRGLEWIGYISYSGITTYNPSLKSRVTMLRDTSKNQFSLRLSSVTAADTAVYYCARSLARTTAMDYWGQGSLVTVSS
VL: DIQMTQSPSSLSASVGDRVTITCRASQDISSYLNWYQQKPGKAPKLLIYYTSRLHSGVPSRFSGSGSGTDFTFTISSLQPEDIATYYCQQGNTLPYTFGQGTKVEIK
As to B1, the FcR9_Fカラムとの結合力が強いピーク(ピーク3)の割合 in experiment [1] came out at 34.7%; in experiment [2], 35.9%; in experiment [3] it was 38.4%; in experiment [4], 27.9%; in experiment [5] it was 41%; in experiment [6], 36.5%.
